In patent US8440804B2, “Polypeptides having modulatory effects on cells” (Ecole Normale Superieure de Lyon, priority 2006, dated 2013):

What was measured:
MCF-7 cells = experiment: Colony formation assay (cell proliferation assay, crystal violet); format: cell-based; settings: MCF-7, continuous expression 2 weeks, compared to AptaLib and human thioredoxin
Experimental: (§1) (B) Colony formation assays. Hela or MCF-7 cells were transfected with plasmids directing the stable expression of the Cdk inhibitor p21, a library of peptide aptamers from pBK1 (AptaLib), Human thioredoxin (HTRX), and peptide aptamers R7G44, R5G42, R5G52. The cells were cultured for two weeks and the colonies were stained with crystal violet.
(§2) The inventors wished to establish the antiproliferative activity of these peptide aptamers using alternative cellular models and a non-retroviral vector to express individually each aptamer. They cloned the aptamer coding genes into a vector bearing a hygromycin selection marker. They also subcloned the pBK1 library into this vector, to create “AptaLib”. They continuously expressed the aptamers, the empty thioredoxin scaffold or AptaLib in Hela and MCF-7 cells for 2 weeks and they stained the cells that grew. […] These aptamers may originate from the remaining background of slowly proliferating cells during the seventh screening iteration, independently of the expressed aptamers. […] This could be due to the fact that the CMTMR assay is more sensitive in detecting modest antiproliferative effects than the colony formation assay or that some peptide aptamers somehow enhance the CMTMR labeling of their host cells.
(§3) To stably express peptide aptamers in mammalian cells, the episomal eukaryotic expression vector pCEP4 that bears a CMV promoter and a hygromycin selection marker (InVitrogen) was used. Aptamer coding sequences were PCR amplified using the oligonucleotides
(§4) that contained a stop codon. The PCR products were digested with NheI and NotI and ligated into NheI/NotI-cut pCEP4 to create pEA-aptamer plasmids. 3×10^5 cells/well were plated in 6-well plates and transfected 24 h after using Jet PEI (Qbiogen), 3.7 μg pEA-aptamer plasmids and 0.3 μg pEGFP-C1 (Clontech) to monitor transfection. Hygromycin (InVitrogen) was added at 200 μg/ml two days later and the cells were cultured for 2 weeks, renewing the medium twice a week. The cells were then rinsed in PBS and were fixed and stained by incubating 30 min in crystal violet (0.05% crystal violet, 20% ethanol, 0.37% formaldehyde). Excess crystal violet was removed by washing with water. In Vitro Phosphatase Assay

Hela cells = experiment: as above; format: cell-based; settings: continuous expression 2 weeks, compared to AptaLib and human thioredoxin
Experimental: as §1, §2, §3, §4

[1] = test system: CNA fragments (CNA constructs CNA1-CNA11); experiment: Further yeast two-hybrid binding assays (higher sensitivity); parameters: species or system human
Text: FIG. 14. Specificity of aptamers according to the invention for CNA and NS5A-TP2 Interaction matrix between peptide aptamers R5G42, C2, C7, C8, N9, R5G44 and R5G52 with CNA constructs CNA1-CNA8 (A) CNA9-11 (B) and NS5A-TP2 (C). An interaction phenotype between CNA3/CNA 11, which both contain the Calmodulin binding domain (CaM) and the auto-inhibitory domain (Al) but not the CNB binding domain (CNB) and the aptamers R5G42, C2, C7, C8 and N9 is observed in a two-hybrid assay. R5G44 and R5G52 aptamers recognize neither the CNA fragments, nor NS5A-TP2. Only aptamers R5G42 and N9 recognize NS5A-TP2.
The inventors proceeded to further yeast two-hybrid binding assays between peptide aptamers R5G42 (SEQ ID 22), C2 (SEQ ID 23), C7 (SEQ ID 27), C8 (SEQ ID 28), N9 (SEQ ID 33), R5G44 and R5G52 with CNA constructs CNA1-CNA8 (FIG. 14A), CNA9-CNA11 (FIG. 14B) and NS5A-TP2 (SEQ ID 15) (FIG. 14C). The sensitivity of this yeast two-hybrid assay was higher than in the experiment reported above.

CNA = experiment: Yeast two-hybrid assay; format: binding, human; settings: mating assay, LexA-aptamer fusions
Text: (§5) (A) Yeast two-hybrid mating assay. TB50α yeast were co-transformed with pSH18-34T (bearing a lacZ reporter gene) and plasmids directing the expression of LexA alone or in fusion with peptide aptamers R5G42, R7G44 or R5G52. MB210a yeast were transformed with the selected cDNA library plasmids directing the expression of CNAβ, CNAγ, and NS5ATP2 truncated proteins. To obtain negative controls, MB210a yeast were also transformed with the empty prey plasmid (pJG4-5) and with pJG4-5 directing the expression of Ras and FKBP12 prey proteins. To obtain a positive control, MB210a yeast were transformed with pJG4-5 directing the expression of RG22 peptide aptamer prey fusion protein that interacts with LexA in the context of most LexA fusion proteins.
(§6) The inventors set out to map the R5G42 binding site on CNA. The CNA interacting clones selected in the yeast two-hybrid experiments corresponded to the carboxy-terminal regions of the beta and gamma isoforms, encompassing the calmodulin-binding domain and the auto-inhibitory domain (see FIG. 3B). […] The LexA-R5G52 bait protein may thus not be properly expressed and/or folded in this yeast two-hybrid setting.
The inventors explored the ability of R5G42 mutants having a one amino acid change as compared to R5G42, to bind to CNA beta and gamma C-Terminal fragments (FIG. 3b) and to NS5A-TP2. To this end, they proceeded to yeast-two hybrid assays as in example 3. CNA beta and gamma C-Terminal fragments (FIG. 3b) and NS5A-TP2 were cloned in three different plasmids (pSH18-34, pJK103 and pRB18-40), which differed from each other in the level of sensitivity of their promoter to the bait/prey complex formation, pSH18-34 having the highest sensitivity and pRB18-40 having the lowest.
The 5′ end of RH6 (upper case) matches part of the HA epitope tag and the 5′ ends of RH4, RH3 and RH7 (upper case) match the 5′ extremity of the ADH terminator. The PCR reactions was performed using pCMV-SPORT6-CnAβ as a template. CnAβCter Δ1, Δ2, CaM were constructed by combining oligonucleotides RH6/RH4, RH6/RH3, RH6/RH7, respectively. […]

peptide aptamer RG22 = experiment: Yeast two-hybrid mating assay, positive control of interaction; format: binding; settings: RG22 interacts with LexA in most LexA fusion proteins
Text: as §5, §6
The 5′ end of RH6 (upper case) matches part of the HA epitope tag and the 5′ ends of RH4, RH3 and RH7 (upper case) match the 5′ extremity of the ADH terminator. The PCR reactions was performed using pCMV-SPORT6-CnAβ as a template. […]

[2] = test system: Bad phosphorylation (phosphatase activity of calcineurin in cells); experiment: Monitoring of Bad phosphorylation in HeLa cells (western blot); format: cell-based; settings: transient expression in human cells
Experimental: (B) Monitoring of BAD phosphorylation in cultured cells. Hela-Tet cells were transfected with plasmids directing the transient expression of BAD, CNAβ, CNB and peptide aptamers R5G42, R5G52 or R7G44. Transfected cells were treated or not with 500 nM FK506. The expression level of BAD and the phosphorylation of serine 112 and 136 residues were monitored by western blot experiments using specific antibodies.
The inventors set out to confirm this finding in human cells. Bad is a key pro-apoptotic protein whose activity is tightly regulated by its phosphorylation status, itself controlled by the balanced activity of several protein kinases and calcineurin. Therefore, the phosphatase activity of calcineurin in cells can be monitored by examining Bad phosphorylation. HeLa cells were transfected with plasmids directing the expression of Bad, CNAβ, CNB and either R5G42, R5G52 or R7G44.
The peptide aptamer coding genes were cloned into pPEAt (a pCEP4-based vector that bears a tetracyclin-inducible promoter and a hygromycin resistance gene), as described above (“cell proliferation assay”).
4×10^5 Hela-tet cells/well were seeded in a 6-well plate 24 h before transfection. […] The lysates were centrifuged to remove cellular debris and the protein content was quantified using the microBCA protein assay kit (Pierce). […]

recognition of the CNA fragments [1]: recognized neither the CNA fragments
B1: R5G52: peptide aptamer: variable region IQSPPESPTG in human thioredoxin (SEQ ID 32) (protein)
chain: MVKQIESKTAFQEALDAAGDKLVVVDFSATWCGPIQSPPESPTGGPCKMIKPFFHSLSEKYSNVIFLEVDVDDCQDVASECEVKCMPTFQFFKKGQKVGEFSGANKEKLEATINELV
modifications: left off: large carriers
inhibition of cell proliferation (colony formation) (MCF-7 cells): significantly inhibited the proliferation
inhibition of cell proliferation (colony formation) (Hela cells): significantly inhibited the proliferation
yeast two-hybrid interaction phenotype with CNA (CNA): did not show an interaction phenotype
yeast two-hybrid interaction phenotype (peptide aptamer RG22): did not show an interaction phenotype
Bad phosphorylation levels [2]: does not affect Bad phosphorylation levels
